The target of the test is myrNAP22 (myristoylated NAP22), rat (rat) (UniProt Q05175). Description: immunoprecipitation with control beads, supernatant on SDS-PAGE, Coomassie staining.

For one substance, signal intensity of myrNAP22 left in the supernatant (lane 2) relative to input (lane 3) results are on record in patent publication WO2015137441A1.

Sequence of UniProt Q05175 (Q05175 2-220 limits assumed): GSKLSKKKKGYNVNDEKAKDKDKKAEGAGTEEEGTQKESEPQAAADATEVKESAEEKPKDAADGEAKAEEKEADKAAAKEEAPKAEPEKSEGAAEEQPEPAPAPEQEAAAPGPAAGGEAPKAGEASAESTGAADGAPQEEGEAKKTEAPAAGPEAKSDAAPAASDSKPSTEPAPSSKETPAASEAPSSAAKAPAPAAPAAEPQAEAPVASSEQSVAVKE

As for “control clone (an antibody clone randomly cloned from the library) (scFv)”, the signal intensity of myrNAP22 left in the supernatant (lane 2) relative to input (lane 3) worked out at 90%.
